# Experimental data published in paper PMC4255728.
# Columns and labels:
# [1] = target: Saccharomyces cerevisiae cytochrome c oxidase, 5A isoenzyme (strain WTCOX5A) (S. cerevisiae) (UniProt P00401)
# [2] = target: Saccharomyces cerevisiae cytochrome c oxidase, 5B isoenzyme (strain COX5B, COX5B downstream of the COX5A promoter) (S. cerevisiae) (UniProt P00401)
# [3] = target: Saccharomyces cerevisiae cytochrome c oxidase, 5B isoenzyme (strain ΔROX1ΔCOX5A, COX5B under its own promoter) (S. cerevisiae) (UniProt P00401)
"Km for cyt c (low-affinity phase of biphasic kinetics), steady-state oxygen consumption of mitos, 1.25-350 μM cyt c, 25°C, pH 6.6, 50 mM KCl, 0.05% DDM [1] [μM]","Km for cyt c (low-affinity phase of biphasic kinetics), steady-state oxygen consumption of mitos, 1.25-350 μM cyt c, 25°C, pH 6.6, 50 mM KCl, 0.05% DDM [2] [μM]","Km for cyt c (low-affinity phase of biphasic kinetics), steady-state oxygen consumption of mitos, 1.25-350 μM cyt c, 25°C, pH 6.6, 50 mM KCl, 0.05% DDM [3] [μM]","Km for cyt c (low-affinity phase), steady-state oxygen consumption of mitos, 1.25-350 μM cyt c, 25°C, pH 6.6, 50 mM KCl, 0.05% DDM [1] [μM]","Km for cyt c (low-affinity phase), steady-state oxygen consumption of mitos, 1.25-350 μM cyt c, 25°C, pH 6.6, 50 mM KCl, 0.05% DDM [2] [μM]","Km for cyt c (low-affinity phase), steady-state oxygen consumption of mitos, 1.25-350 μM cyt c, 25°C, pH 6.6, 50 mM KCl, 0.05% DDM [3] [μM]",Substance
29.8,39.5,41.2,,,,Yeast iso-1 cytochrome c (isoform-1) (from UniProt P00044 1-109) (natural protein)
,,,13.9,14.5,10.8,Horse heart cytochrome c (from UniProt P00004 1-105) (natural protein)
23.9,59.5,47.8,,,,Yeast iso-2 cytochrome c (isoform-2) (from UniProt P00045 1-113) (natural protein)
